Columns and labels:
ADI-50024 = molecular target: T1, ADI-50024; assay: SPR Carterra, yeast anti-ID
T1 construct: anti-CD3 antibody made in CHO cells, captured by anti-human Fc
Method in brief: (§1)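 Measured at 25° C in HBSTE running buffer on a Carterra LSA; anti-CD3 antibodies (100 nM) were captured for 5 min on an amine-coupled goat anti-human Fc HC30M chip. Anti-idiotype dissociation was followed for 300s, and double-referenced sensorgrams were fitted to a 1:1 binding model.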

ADI-70326 = molecular target: T2, ADI-70326; assay: SPR Carterra, yeast anti-ID
T2 construct: anti-CD3 antibody made in CHO cells, captured by anti-human Fc
Method in brief: as §1

ADI-70327 = molecular target: T3, ADI-70327; assay: SPR Carterra, yeast anti-ID
T3 construct: anti-CD3 antibody made in CHO cells, captured by anti-human Fc
Method in brief: as §1

ADI-70330 = molecular target: T4, ADI-70330; assay: SPR Carterra, yeast anti-ID
T4 construct: anti-CD3 antibody made in CHO cells, captured by anti-human Fc
Method in brief: as §1

ADI-67445 = molecular target: T5, ADI-67445; assay: SPR Carterra, yeast anti-ID
T5 construct: anti-CD3 antibody made in CHO cells, captured by anti-human Fc
T5 sequence (VH, as listed by the source limits assumed, chain 1 of 2): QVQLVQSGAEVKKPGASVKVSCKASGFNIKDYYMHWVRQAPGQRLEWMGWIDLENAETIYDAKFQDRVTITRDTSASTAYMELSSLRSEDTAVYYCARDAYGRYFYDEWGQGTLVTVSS
T5 sequence (VL, as listed by the source limits assumed, chain 2 of 2): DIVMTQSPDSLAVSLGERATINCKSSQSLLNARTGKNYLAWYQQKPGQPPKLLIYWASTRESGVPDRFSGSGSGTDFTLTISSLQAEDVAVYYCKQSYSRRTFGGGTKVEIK
Method in brief: as §1

ADI-26909 = molecular target: T6, ADI-26909; assay: SPR Carterra, yeast anti-ID
T6 construct: anti-CD3 antibody made in CHO cells, captured by anti-human Fc
Method in brief: as §1

ADI-26915 = molecular target: T7, ADI-26915; assay: SPR Carterra, yeast anti-ID
T7 construct: anti-CD3 antibody made in CHO cells, captured by anti-human Fc
Method in brief: as §1

ADI-48587 = molecular target: T8, ADI-48587; assay: SPR Carterra, yeast anti-ID
T8 construct: pH-dependent anti-CD3 antibody made in CHO cells
Method in brief: as §1

ADI-48650 = molecular target: T9, ADI-48650; assay: SPR Carterra, yeast anti-ID
T9 construct: pH-dependent anti-CD3 antibody made in CHO cells
T9 sequence (VH, as listed by the source, chain 1 of 2): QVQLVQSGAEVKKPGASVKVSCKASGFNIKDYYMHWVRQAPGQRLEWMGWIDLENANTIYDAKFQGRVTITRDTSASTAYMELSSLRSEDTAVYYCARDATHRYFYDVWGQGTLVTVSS
T9 sequence (VL, as listed by the source, chain 2 of 2): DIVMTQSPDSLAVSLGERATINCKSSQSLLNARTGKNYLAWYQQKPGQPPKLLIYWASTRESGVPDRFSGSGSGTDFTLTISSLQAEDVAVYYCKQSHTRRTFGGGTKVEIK
Method in brief: as §1

CTL-62223 = molecular target: T10, CTL-62223; assay: SPR Carterra, yeast anti-ID
T10 construct: also called mosunetuzumab
T10 sequence (VH, as listed by the source, chain 1 of 2): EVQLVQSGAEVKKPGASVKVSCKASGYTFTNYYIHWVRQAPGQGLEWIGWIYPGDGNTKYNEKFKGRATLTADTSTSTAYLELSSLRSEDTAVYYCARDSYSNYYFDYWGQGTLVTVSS
T10 sequence (VL, as listed by the source, chain 2 of 2): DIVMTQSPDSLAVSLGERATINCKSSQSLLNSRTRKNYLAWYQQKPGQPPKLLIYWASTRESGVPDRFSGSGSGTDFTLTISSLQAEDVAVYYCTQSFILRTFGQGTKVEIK
Method in brief: as §1

CTL-62227 = molecular target: T11, CTL-62227; assay: SPR Carterra, yeast anti-ID
T11 construct: also called odronextamab
T11 sequence (VH, as listed by the source, chain 1 of 2): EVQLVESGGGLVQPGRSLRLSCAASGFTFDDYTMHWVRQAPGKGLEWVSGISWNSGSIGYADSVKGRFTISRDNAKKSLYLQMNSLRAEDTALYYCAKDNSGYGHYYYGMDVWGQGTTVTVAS
T11 sequence (VL, as listed by the source, chain 2 of 2): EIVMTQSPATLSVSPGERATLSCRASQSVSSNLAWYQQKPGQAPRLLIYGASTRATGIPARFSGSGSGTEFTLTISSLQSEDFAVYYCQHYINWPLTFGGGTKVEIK
Method in brief: as §1

CTL-62228 = molecular target: T12, CTL-62228; assay: SPR Carterra, yeast anti-ID
T12 construct: also called glofitamab
Method in brief: as §1

CTL-62240 = molecular target: T13, CTL-62240; assay: SPR Carterra, yeast anti-ID
T13 construct: also called ONO-4685
Method in brief: as §1

ADI-67450 = molecular target: T14, ADI-67450; assay: SPR Carterra avidity, yeast anti-ID
T14 construct: anti-CD3 antibody made in CHO cells, captured by anti-human Fc
Method in brief: as §1

ADI-67447 = molecular target: T15, ADI-67447; assay: SPR Carterra avidity, yeast anti-ID
T15 construct: anti-CD3 antibody made in CHO cells, captured by anti-human Fc
T15 sequence (VH, as listed by the source limits assumed, chain 1 of 2): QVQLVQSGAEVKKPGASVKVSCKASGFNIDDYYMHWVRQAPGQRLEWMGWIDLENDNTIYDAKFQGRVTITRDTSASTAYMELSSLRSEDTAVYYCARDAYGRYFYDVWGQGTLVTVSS
Method in brief: as §1

ADI-26913 IgG = molecular target: T16, ADI-26913 IgG; assay: SPR Carterra avidity, yeast anti-ID
T16 construct: anti-CD3 IgG
T16 sequence (VH, as listed by the source limits assumed, chain 1 of 2): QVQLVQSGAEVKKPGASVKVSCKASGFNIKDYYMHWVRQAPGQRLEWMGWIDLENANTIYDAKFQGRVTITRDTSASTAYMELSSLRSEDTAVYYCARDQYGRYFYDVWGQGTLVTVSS
Method in brief: as §1

ADI-26919 = molecular target: T17, ADI-26919; assay: SPR Carterra avidity, yeast anti-ID
T17 construct: anti-CD3 antibody made in CHO cells, captured by anti-human Fc
Method in brief: as §1

ADI-26920 IgG = molecular target: T18, ADI-26920 IgG; assay: SPR Carterra avidity, yeast anti-ID
T18 construct: anti-CD3 IgG
T18 sequence (VH, as listed by the source limits assumed, chain 1 of 2): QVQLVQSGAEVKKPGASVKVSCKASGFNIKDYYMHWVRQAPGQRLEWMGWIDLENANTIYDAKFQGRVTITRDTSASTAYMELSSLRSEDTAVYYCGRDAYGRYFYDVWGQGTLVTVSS
T18 sequence (VL, as listed by the source limits assumed, chain 2 of 2): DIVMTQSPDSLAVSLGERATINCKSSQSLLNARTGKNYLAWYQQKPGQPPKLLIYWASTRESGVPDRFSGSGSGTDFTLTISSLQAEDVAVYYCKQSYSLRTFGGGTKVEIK
Method in brief: as §1

ADI-26921 IgG = molecular target: T19, ADI-26921 IgG; assay: SPR Carterra avidity, yeast anti-ID
T19 construct: anti-CD3 IgG
T19 sequence (VH, as listed by the source limits assumed, chain 1 of 2): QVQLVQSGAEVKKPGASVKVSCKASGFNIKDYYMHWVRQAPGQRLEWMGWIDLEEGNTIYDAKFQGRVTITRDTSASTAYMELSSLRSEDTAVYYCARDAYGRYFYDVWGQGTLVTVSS
Method in brief: as §1

ADI-26916 IgG = molecular target: T20, ADI-26916 IgG; assay: SPR Carterra avidity, yeast anti-ID
T20 construct: anti-CD3 IgG
Method in brief: as §1

ADI-26912 = molecular target: T21, ADI-26912; assay: SPR Carterra avidity, yeast anti-ID
T21 construct: anti-CD3 antibody made in CHO cells, captured by anti-human Fc
T21 sequence (VH, as listed by the source, chain 1 of 2): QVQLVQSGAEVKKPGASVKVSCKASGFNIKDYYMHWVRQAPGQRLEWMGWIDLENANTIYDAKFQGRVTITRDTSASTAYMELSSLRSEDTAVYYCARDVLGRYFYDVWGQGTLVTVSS
Method in brief: as §1

ADI-26924 = molecular target: T22, ADI-26924; assay: SPR Carterra avidity, yeast anti-ID
T22 construct: anti-CD3 antibody made in CHO cells, captured by anti-human Fc
T22 sequence (VH, as listed by the source, chain 1 of 2): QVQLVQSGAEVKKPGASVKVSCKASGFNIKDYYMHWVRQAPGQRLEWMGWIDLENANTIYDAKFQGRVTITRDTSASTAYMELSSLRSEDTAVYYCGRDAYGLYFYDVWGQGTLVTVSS
Method in brief: as §1

ADI-26943 = molecular target: T23, ADI-26943; assay: SPR Carterra avidity, yeast anti-ID
T23 construct: anti-CD3 antibody made in CHO cells, captured by anti-human Fc
T23 sequence (VH, as listed by the source, chain 1 of 2): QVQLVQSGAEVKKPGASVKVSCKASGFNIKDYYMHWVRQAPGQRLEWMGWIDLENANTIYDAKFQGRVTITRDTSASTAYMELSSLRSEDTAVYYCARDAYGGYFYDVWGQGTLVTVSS
T23 sequence (VL, as listed by the source, chain 2 of 2): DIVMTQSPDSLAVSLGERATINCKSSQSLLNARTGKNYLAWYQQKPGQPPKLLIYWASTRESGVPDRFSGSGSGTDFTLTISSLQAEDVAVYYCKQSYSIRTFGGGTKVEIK
Method in brief: as §1

ADI-48576 = molecular target: T24, ADI-48576; assay: SPR Carterra avidity, yeast anti-ID
T24 construct: pH-dependent anti-CD3 antibody made in CHO cells
T24 sequence (VH, as listed by the source, chain 1 of 2): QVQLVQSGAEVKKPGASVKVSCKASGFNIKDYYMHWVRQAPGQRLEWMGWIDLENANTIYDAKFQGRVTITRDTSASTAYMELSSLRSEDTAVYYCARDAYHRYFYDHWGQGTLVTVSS
T24 sequence (VL, as listed by the source, chain 2 of 2): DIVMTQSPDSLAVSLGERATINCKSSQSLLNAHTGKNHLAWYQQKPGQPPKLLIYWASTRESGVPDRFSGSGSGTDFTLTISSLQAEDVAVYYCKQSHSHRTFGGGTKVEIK
Method in brief: as §1

ADI-48592 = molecular target: T25, ADI-48592; assay: SPR Carterra avidity, yeast anti-ID
T25 construct: pH-dependent anti-CD3 antibody made in CHO cells
Method in brief: as §1

ADI-74965 = molecular target: T26, ADI-74965; assay: SPR Carterra avidity, yeast anti-ID
T26 construct: pH-dependent anti-CD3 antibody made in CHO cells
T26 sequence (VH, as listed by the source, chain 1 of 2): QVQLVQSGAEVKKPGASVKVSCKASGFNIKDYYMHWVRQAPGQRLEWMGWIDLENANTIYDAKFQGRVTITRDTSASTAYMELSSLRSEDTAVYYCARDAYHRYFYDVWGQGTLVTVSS
T26 sequence (VL, as listed by the source, chain 2 of 2): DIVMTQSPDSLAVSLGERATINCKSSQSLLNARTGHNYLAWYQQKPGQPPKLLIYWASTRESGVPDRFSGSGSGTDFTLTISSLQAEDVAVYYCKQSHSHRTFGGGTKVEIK
Method in brief: as §1

ADI-74966 = molecular target: T27, ADI-74966; assay: SPR Carterra avidity, yeast anti-ID
T27 construct: pH-dependent anti-CD3 antibody made in CHO cells
Method in brief: as §1

ADI-74967 = molecular target: T28, ADI-74967; assay: SPR Carterra avidity, yeast anti-ID
T28 construct: pH-dependent anti-CD3 antibody made in CHO cells
Method in brief: as §1

ADI-74968 = molecular target: T29, ADI-74968; assay: SPR Carterra avidity, yeast anti-ID
T29 construct: pH-dependent anti-CD3 antibody made in CHO cells
T29 sequence (VL, as listed by the source, chain 2 of 2): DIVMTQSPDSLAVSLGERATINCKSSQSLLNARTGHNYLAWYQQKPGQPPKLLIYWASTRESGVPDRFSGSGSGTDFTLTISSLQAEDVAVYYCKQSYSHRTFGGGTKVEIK
Method in brief: as §1

ADI-76358 = molecular target: T30, ADI-76358; assay: SPR Carterra avidity, yeast anti-ID
T30 construct: anti-CD3 antibody made in CHO cells, captured by anti-human Fc
Method in brief: as §1

ADI-76359 = molecular target: T31, ADI-76359; assay: SPR Carterra avidity, yeast anti-ID
T31 construct: anti-CD3 antibody made in CHO cells, captured by anti-human Fc
T31 sequence (VH, as listed by the source, chain 1 of 2): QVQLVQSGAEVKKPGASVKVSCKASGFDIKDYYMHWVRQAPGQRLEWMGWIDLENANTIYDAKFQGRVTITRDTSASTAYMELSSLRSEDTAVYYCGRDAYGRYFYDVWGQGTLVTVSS
Method in brief: as §1

ADI-76360 = molecular target: T32, ADI-76360; assay: SPR Carterra avidity, yeast anti-ID
T32 construct: anti-CD3 antibody made in CHO cells, captured by anti-human Fc
T32 sequence (VH, as listed by the source, chain 1 of 2): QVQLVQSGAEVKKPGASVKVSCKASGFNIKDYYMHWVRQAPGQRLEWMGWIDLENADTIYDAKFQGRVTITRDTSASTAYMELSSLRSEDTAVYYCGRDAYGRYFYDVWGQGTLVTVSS
Method in brief: as §1

ADI-76361 = molecular target: T33, ADI-76361; assay: SPR Carterra avidity, yeast anti-ID
T33 construct: anti-CD3 antibody made in CHO cells, captured by anti-human Fc
Method in brief: as §1

ADI-76362 = molecular target: T34, ADI-76362; assay: SPR Carterra avidity, yeast anti-ID
T34 construct: anti-CD3 antibody made in CHO cells, captured by anti-human Fc
T34 sequence (VH, as listed by the source, chain 1 of 2): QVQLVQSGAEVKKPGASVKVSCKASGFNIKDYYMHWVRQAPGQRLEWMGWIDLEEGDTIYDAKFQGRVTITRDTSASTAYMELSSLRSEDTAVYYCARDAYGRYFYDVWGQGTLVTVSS
Method in brief: as §1

ADI-22523 Fab = molecular target: T35, ADI-22523 Fab; assay: BLI; tip anti-ID IgG, solution ADI-22523 Fab
T35 construct: anti-CD3 Fab by papain digestion of the IgG
Method in brief: (§2)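 Anti-ID IgG was captured on AHC biosensors, equilibrated in assay buffer for 30 min, then baselined for 60 s. KD = koff/kon came from a 1:1 binding fit.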

ADI-22523 IgG = molecular target: T36, ADI-22523 IgG; assay: BLI; tip anti-ID IgG, solution ADI-22523 IgG
T36 construct: anti-CD3 IgG
Method in brief: as §2

ADI-26906 IgG = molecular target: T37, ADI-26906 IgG; assay: SPR Carterra avidity, yeast anti-ID, *koff limit
T37 construct: anti-CD3 IgG
Method in brief: as §1

ADI-76357 = molecular target: T38, ADI-76357; assay: SPR Carterra avidity, yeast anti-ID, *koff limit
T38 construct: anti-CD3 antibody made in CHO cells, captured by anti-human Fc
T38 sequence (VH, as listed by the source, chain 1 of 2): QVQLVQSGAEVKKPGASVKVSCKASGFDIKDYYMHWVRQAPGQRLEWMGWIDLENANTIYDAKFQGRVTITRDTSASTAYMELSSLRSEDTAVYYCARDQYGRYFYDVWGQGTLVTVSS
Method in brief: as §1

B1: ADI-34143 (antibody, V domains shown)
VH: EVQLLESGGGLVQPGGSLRLSCAASGFTFSSYAMSWVRQAPGKGLEWVSTISGSGGSTYYADSVKGRFTISRDNSKNTLYLQMNSLRAEDTAVYYCARLGGRRGSGSSYYYYYGMDVWGQGTTVTVSS
VL: not shown
notes: anti-ID IgG
ADI-50024
  binding result: no binding (tested: up to 200 nM)
ADI-70326
  binding result: no binding (tested: up to 200 nM)
ADI-70327
  binding result: no binding (tested: up to 200 nM)
ADI-70330
  binding result: no binding (tested: up to 200 nM)
ADI-67445
  binding result: no binding (tested: up to 200 nM)
ADI-26909
  binding result: no binding (tested: up to 200 nM)
ADI-26915
  binding result: no binding (tested: up to 200 nM)
ADI-48587
  binding result: no binding (tested: up to 200 nM)
ADI-48650
  binding result: no binding (tested: up to 200 nM)
CTL-62223
  binding result: no binding (tested: up to 200 nM)
CTL-62227
  binding result: no binding (tested: up to 200 nM)
CTL-62228
  binding result: no binding (tested: up to 200 nM)
CTL-62240
  binding result: no binding (tested: up to 200 nM)
ADI-67450
  binding result: binds
ADI-67447
  Kd: 33 nM
ADI-26913 IgG
  Kd: 23 nM
ADI-26919
  Kd: 24 nM
ADI-26920 IgG
  Kd: 35 nM
ADI-26921 IgG
  binding result: binds
ADI-26916 IgG
  Kd: 43 nM
ADI-26912
  binding result: binds
ADI-26924
  Kd: 20 nM
ADI-26943
  Kd: 11 nM
ADI-48576
  binding result: binds
ADI-48592
  binding result: binds
ADI-74965
  binding result: binds
ADI-74966
  Kd: 36 nM
ADI-74967
  binding result: binds
ADI-74968
  Kd: 130 nM
ADI-76358
  binding result: binds
ADI-76359
  Kd: 20 nM
ADI-76360
  binding result: binds
ADI-76361
  binding result: binds
ADI-76362
  binding result: binds
ADI-22523 Fab
  Kd: 18.2 nM
ADI-22523 IgG
  Kd: 2.98 nM
ADI-26906 IgG
  Kd: 13 nM
ADI-76357
  Kd: 6.6 nM
